The record followed here is patent publication US20230151091A1 (NEW YORK UNIVERSITY, published 2023).

Assay [1] concerns the target T1, hFz: Fz domain and C-terminal flanking sequence of human MuSK (K314-T495) with C-terminal Avi- and His6-tags (human, UniProt O15146 314-495, biotinylated in vitro using the BirA enzyme).
T1 construct: also called human Fz; not shown: Avi- and His6-tags
T1 sequence: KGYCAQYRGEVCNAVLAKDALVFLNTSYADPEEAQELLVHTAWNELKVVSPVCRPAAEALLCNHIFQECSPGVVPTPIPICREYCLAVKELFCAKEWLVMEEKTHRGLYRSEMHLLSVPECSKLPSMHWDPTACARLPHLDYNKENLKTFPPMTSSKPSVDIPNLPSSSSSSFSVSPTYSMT
Description: bead-binding assay, Fab format: biotinylated antigen on streptavidin beads, flow cytometry, 1:1 fit; average ± s.d., n=3. (In general: A flow cytometer gives signals particle by particle.)

In assay [2] the target is T2, mECD: full-length extracellular region of mouse MuSK (E22 to T494) with C-terminal Avi- and His6-tags (mouse, UniProt Q61006 22-494, biotinylated in vitro using the BirA enzyme).
T2 construct: range 22-494; also called mouse ECD; not shown: Avi- and His6-tags
T2 sequence (looked up): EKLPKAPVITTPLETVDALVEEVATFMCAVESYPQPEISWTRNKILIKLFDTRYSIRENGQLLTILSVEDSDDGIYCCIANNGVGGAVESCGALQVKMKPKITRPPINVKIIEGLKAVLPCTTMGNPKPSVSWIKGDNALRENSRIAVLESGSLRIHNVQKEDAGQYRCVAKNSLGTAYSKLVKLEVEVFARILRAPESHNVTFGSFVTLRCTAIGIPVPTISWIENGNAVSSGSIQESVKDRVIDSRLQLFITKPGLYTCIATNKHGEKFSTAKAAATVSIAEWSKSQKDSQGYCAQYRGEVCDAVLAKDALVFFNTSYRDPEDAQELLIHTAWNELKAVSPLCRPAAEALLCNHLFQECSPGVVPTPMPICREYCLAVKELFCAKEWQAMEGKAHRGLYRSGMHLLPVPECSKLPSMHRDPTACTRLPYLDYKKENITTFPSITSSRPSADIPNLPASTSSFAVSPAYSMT
Described as above.

The target in assay [3] is T3, hECD: full-length extracellular region of human MuSK (E22 to T495) with C-terminal Avi- and His6-tags (human, UniProt O15146 22-495, biotinylated in vitro using the BirA enzyme).
T3 construct: also called human ECD; not shown: Avi- and His6-tags
T3 sequence: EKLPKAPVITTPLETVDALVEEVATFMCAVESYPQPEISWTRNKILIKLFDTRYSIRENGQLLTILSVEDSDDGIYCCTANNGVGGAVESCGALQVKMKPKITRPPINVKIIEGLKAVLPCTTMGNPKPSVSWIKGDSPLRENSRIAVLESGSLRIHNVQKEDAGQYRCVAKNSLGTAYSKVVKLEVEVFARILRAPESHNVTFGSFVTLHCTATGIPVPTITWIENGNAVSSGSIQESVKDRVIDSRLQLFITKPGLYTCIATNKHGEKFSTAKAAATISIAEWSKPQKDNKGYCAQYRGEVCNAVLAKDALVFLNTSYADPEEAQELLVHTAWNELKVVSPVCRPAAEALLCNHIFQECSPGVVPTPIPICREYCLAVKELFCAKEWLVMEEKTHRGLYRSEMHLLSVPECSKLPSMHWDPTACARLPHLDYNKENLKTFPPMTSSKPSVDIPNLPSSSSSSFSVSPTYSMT
The description is as above.

Assay [4] deals with T4, mFz: Fz domain and C-terminal flanking sequence of mouse MuSK (D307 to T494) with C-terminal Avi- and … (mouse, UniProt Q61006 307-494, limits assumed, biotinylated in vitro using the BirA enzyme).
T4 construct: also called mouse Fz; not shown: Avi- and His6-tags
T4 sequence (looked up): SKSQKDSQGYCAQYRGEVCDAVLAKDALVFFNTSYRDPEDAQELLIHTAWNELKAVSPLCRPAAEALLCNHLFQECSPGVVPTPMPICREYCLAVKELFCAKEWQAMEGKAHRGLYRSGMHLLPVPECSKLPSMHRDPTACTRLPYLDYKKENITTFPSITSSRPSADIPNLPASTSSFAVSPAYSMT
The assay is described as above.

The target of assay [5] is T1, hFz: Fz domain and C-terminal flanking …. Description: bead-binding titration, Fab format: antigen immobilized on streptavidin beads, MFI by flow cytometry, curve is the 1:1 fit.
The target of assay [6] is T2, mECD: full-length extracellular region …. The description is as above.
Assay [7] concerns the target T3, hECD: full-length extracellular region …. The assay is described as above.
The target of assay [8] is T4, mFz: Fz domain and C-terminal flanking …. The assay is described as above.
Assay [9] deals with T5, mouse MuSK (mouse, UniProt Q61006 22-494, limits assumed).
T5 construct: Coated on ELISA plates or on the Biacore chip; also called full length mouse MuSK; mouse MuSK (in house produced in HEK293 cells)
T5 sequence (looked up): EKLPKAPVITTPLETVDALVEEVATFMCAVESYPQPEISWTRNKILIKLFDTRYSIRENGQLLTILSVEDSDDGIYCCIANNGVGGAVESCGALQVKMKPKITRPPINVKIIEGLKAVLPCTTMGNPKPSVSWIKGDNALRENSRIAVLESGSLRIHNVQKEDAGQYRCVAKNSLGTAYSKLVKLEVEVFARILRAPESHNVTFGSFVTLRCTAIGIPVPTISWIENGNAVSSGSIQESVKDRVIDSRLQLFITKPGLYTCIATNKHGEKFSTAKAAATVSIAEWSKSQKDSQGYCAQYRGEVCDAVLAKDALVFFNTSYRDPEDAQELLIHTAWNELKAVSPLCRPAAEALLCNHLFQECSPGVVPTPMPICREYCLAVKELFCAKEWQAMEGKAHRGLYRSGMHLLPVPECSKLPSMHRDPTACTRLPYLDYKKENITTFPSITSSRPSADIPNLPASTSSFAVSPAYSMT
Description: Biacore T200, off rate at pH 5.5 against pH 7.4. The protocol:
(§1) In order to study pH dependent binding of the antibodies described herein to MuSK, a Biacore T200 was used. Briefly, a CMS chip was coated with human and mouse MuSK (200RU) and 22.2 nM of Fab was applied and kinetic parameters calculated. Association was done at pH7.4, dissociation was done at pH 7.4 and also at pH 5.5. The following Fabs were tested, X2, X2m4, X3, X9, X17, 3B2 and 3B2g2m1 (Table 10 and FIG. 23). […] Binding affinity at pH 5.5 is very low, resulting in a rapid dissociation at endosomal pH allowing 3B2g2m1 to recycle.
(In general: In SPR one partner is held on a chip, and binding of the other changes the refractive index at the surface.)

Assay [10] deals with T6, human MuSK (human, UniProt O15146 24-495).
T6 construct: Recombinant protein coated on ELISA plates (R&D Systems cat. 10189-MK) or on the Biacore chip; also called human muscle-specific tyrosine protein kinase; full length human MuSK
T6 sequence: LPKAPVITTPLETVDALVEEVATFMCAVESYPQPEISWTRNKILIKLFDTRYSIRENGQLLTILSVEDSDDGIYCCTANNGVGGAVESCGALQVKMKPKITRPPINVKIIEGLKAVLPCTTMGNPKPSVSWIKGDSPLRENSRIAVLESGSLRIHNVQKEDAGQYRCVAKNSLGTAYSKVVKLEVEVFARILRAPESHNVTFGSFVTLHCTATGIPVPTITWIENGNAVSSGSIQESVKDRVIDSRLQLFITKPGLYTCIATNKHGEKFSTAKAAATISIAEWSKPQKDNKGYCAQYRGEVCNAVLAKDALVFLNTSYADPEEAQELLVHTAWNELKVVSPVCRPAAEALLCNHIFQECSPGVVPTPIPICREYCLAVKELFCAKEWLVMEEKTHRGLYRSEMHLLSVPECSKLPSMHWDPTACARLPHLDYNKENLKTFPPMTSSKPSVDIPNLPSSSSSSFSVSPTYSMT
Briefly: Biacore T200, off rate at pH 5.5 against pH 7.4. The protocol:
as §1

Assay [11] concerns the target T5, mouse MuSK. Description: Biacore, MuSK on chip (200RU), Fab dilution series. From the text: (§2) For affinity determination, a CMS chip was coated with either human or mouse MuSK (200RU) and a dilution series of the antibodies (mAbs and Fabs) was applied in order to be able to calculate the affinity.
For assay [12], the target named is T6, human MuSK. Briefly: Biacore, MuSK on chip (200RU), Fab dilution series.
From the text: as §2

For assay [13], the target named is T5, mouse MuSK. Description: Biacore T200, MuSK on chip (200RU), 22.2 nM Fab, dissociation pH 7.4. The protocol:
as §1

Assay [14] addresses T6, human MuSK. The description is as above. The protocol: as §1
Assay [15] has as its target T5, mouse MuSK. Description: Biacore T200, MuSK on chip (200RU), 22.2 nM Fab, dissociation pH 5.5. The protocol:
as §1

For assay [16], the target named is T6, human MuSK. The description is as above. The protocol:
as §1

B1: X13 Fab (Fab, V domains shown)
VH: EVQLVESGGGLVQPGGSLRLSCAASGFTISSSSIHWVRQAPGKGLEWVASISSSSGSTSYADSVKGRFTISADTSKNTAYLQMNSLRAEDTAVYYCARSSEHWYTIGYYGIDYWGQGTLVTVSS
VL: DIQMTQSPSSLSASVGDRVTITCRASQSVSSAVAWYQQKPGKAPKLLIYSASSLYSGVPSRFSGSRSGTDFTLTISSLQPEDFATYYCQQSYGSFSLITFGQGTKVEIK
notes: also called Fab Clone X13
Broadly, the Kd is the constant that tells how readily two partners part at equilibrium. Read a low Kd as a tighter complex. Broadly, the EC50 (read off the curve) is the concentration at which the effect is half-maximal. A high value points to a need for much substance. For B1, the Kd came to 1.7 nM in [1], 2.41 nM in [2], 2.39 nM in assay [3] and 1.56 nM in [4]. In addition, the “EC50 (read off the curve)” value in assay [5], in assay [6], in [7] and in assay [8] was approximately 2 nM each time.

B2: 3B2 Fab (Fab, V domains shown)
VH: ELQLVESGGGLVQPGGSLRLSCAASGFTFDDYGMSWVRQAPGKGLEWVSAIPWNGGSTYYKESVKGRFTISRDNAKKTLYLQMNSLKSEDTAVYYCAKRSGRIAFGALDAWGQGTLVTVSS
VL: QAVVTQEPSLSVSPGGTVTLTCGLSSGSVTSSNYPDWYQQTPGQAPRGLIYSTDSRHSGVPSRFSGSISGNKAALTITGAQSEDEADYYCGLYMYSGSKNYVFGGGTKLTVL
notes: Fab format; also called Fab 3B2
By koff is commonly meant the first-order rate constant of dissociation. Lower therefore signals a long-lived complex. Consider B2, for which the “Ratio pH 5.5/7.4 of off rate” value with mouse MuSK [9] worked out at 31.5; with human MuSK [10], 5.8. The results for the Kd with mouse MuSK [11] and with human MuSK [12] were 1.52 nM and 3.18 nM, respectively. For the same molecule, the koff is 0.00347 s⁻¹ with mouse MuSK [13], 0.00388 s⁻¹ in the assay with human MuSK [14], 0.109 s⁻¹ in the assay with mouse MuSK [15] and 0.0224 s⁻¹ with human MuSK [16].

B3: X6 Fab (Fab, V domains shown)
VH: EVQLVESGGGLVQPGGSLRLSCAASGFTFSSSSIHWVRQAPGKGLEWVASISSYSGYTYYADSVKGRFTISADTSKNTAYLQMNSLRAEDTAVYYCARTYGSYYVSSYTGMDYWGQGTLVTVSS
VL: DIQMTQSPSSLSASVGDRVTITCRASQSVSSAVAWYQQKPGKAPKLLIYSASSLYSGVPSRFSGSRSGTDFTLTISSLQPEDFATYYCQQSSSSLITFGQGTKVEIK
notes: also called Fab Clone X6
Take B3: the Kd in assay [1] came to 0.9 nM; in assay [2], 0.59 nM; in [3], 1.47 nM; in [4], 0.42 nM. In addition, the half-maximal effective concentration (EC50 (read off the curve)) was approximately 1 nM in [5], approximately 0.6 nM in [6], approximately 1 nM in [7] and approximately 0.4 nM in [8].
